Three molecules from patent US20180258187A1 can be followed below.

Substitutions are numbered along the chain they refer to.

Assay [1] deals with EBV-LMP2 peptide/HLA-A*02:01 complex as naturally presented on HLA-A*02:01+ EBV+ cells (BLCL, tumour cell lines) (human; Epstein-Barr virus). Put plainly: cell-based or functional assay.
Assay [2] concerns the target P19 peptide (mixture of 19 endogenous control peptides) loaded T2 cell. Briefly: flow cytometry, phage antibody on peptide loaded T2 cells. For orientation: Flow cytometry measures light scatter and fluorescence of single cells or particles in a stream.
For assay [3], the target named is EBV-LMP2 peptide presented by HLA-A*02:06 on artificial antigen presenting cells (human; Epstein-Barr virus).

B1: LMP2-38 Dimeric BsAb (bispecific antibody, part only)
VH: QSALTQPASVSGSPGQSITISCTGTSSDVGSYNDVSWYQQHPGKAPKLMIYDVSNRPSGVSNRFSGSKSGNTASLTISGLQTEDEADYYCNSYTSSNTYVFGTGTKVTVLG
VL: QVQLVQSGAEVKKPGASVQVSCRASGYTITSYYMHWVRQAPGQGLEWMGVINPNAGSTRYAQKFQGRVTMSTDTSTSTVYMALSSLRSDDTAVYYCARGMYRMYDWGQGTLVTVSS
chain 1: DVQLVQSGAEVKKPGASVKVSCKASGYTFTRYTMHWVRQAPGQGLEWIGYINPSRGYTNYADSVKGRFTITTDKSTSTAYMELSSLRSEDTATYYCARYYDDHYSLDYWGQGTTVTVSSGEGTSTGSGGSGGSGGADDIVLTQSPATLSLSPGERATLSCRASQSVSYMNWYQQKPGKAPKRWIYDTSKVASGVPARFSGSGSGTDYSLTINSLEAEDAATYYCQQWSSNPLTFGGGTKVEIK
chain 2: RTPLGDTTHTSGMVSKLSQLQTELLAALLESGLSKEALIQALGEGSGGAPHHHHHH
For the molecule B1, in assay [1], the % Max Killing, DT BLCL (T cell dependent cytotoxicity, 51Cr release) came out at 39.9%; the % Max Killing, F BLCL (T cell dependent cytotoxicity, 51Cr release) came out at 25.8%; the % Max Killing, HONE-1-A2 (T cell dependent cytotoxicity, 51Cr release) was 16.8%; the % Max Killing, RPMI-6666 (T cell dependent cytotoxicity, 51Cr release) worked out at 26.5%. Besides, in assay [1], the EC50 (µg/mL), DT BLCL (T cell dependent cytotoxicity) worked out at 0.025 µg/mL; the EC50 (µg/mL), F BLCL (T cell dependent cytotoxicity) was found to be 0.033 µg/mL; the EC50 (µg/mL), HONE-1-A2 (T cell dependent cytotoxicity) was 0.024 µg/mL; the EC50 (µg/mL), RPMI-6666 (T cell dependent cytotoxicity) is 0.037 µg/mL.

B2: LMP2-38-11 (antibody, name in Kabat numbering, V domains shown)
VH: B1 VL with G26E, I51V
VL: B1 VH
Consider B2, for which, in assay [2], the ratio of specific phage antibody FACS signal to negative control FACS signal was in the range of 2 to 10.

B3: LMP2-38 IgG1 (antibody, V domains shown)
VH: B1 VL
VL: B1 VH
Turning to B3, the number beside the legend entry (name not given; FL2-H histogram) in assay [3] worked out at 81.5.
